Data on five molecules can be found in paper PMC6239434, “Angiopoietin-4-dependent venous maturation and fluid drainage in the peripheral retina” (eLife, 2018).

For series [1], the target named is TIE2 (Homo sapiens) (UniProt Q02763). Conditions: cited from earlier work.
Series [2] deals with the molecule itself. The series is described as follows: non-reducing SDS polyacrylamide gel electrophoresis; purified recombinant angiopoietins run under non-reducing and reducing (1% 2-mercaptoethanol) conditions; oligomerization and multimerization states.

For orientation: Kd means the concentration at which binding is half-saturated. As a reminder, the stoichiometry N is the number of molecules, sites or subunits per partner or assembly.

Chain of TIE2 (Homo sapiens) (Q02763 23-748): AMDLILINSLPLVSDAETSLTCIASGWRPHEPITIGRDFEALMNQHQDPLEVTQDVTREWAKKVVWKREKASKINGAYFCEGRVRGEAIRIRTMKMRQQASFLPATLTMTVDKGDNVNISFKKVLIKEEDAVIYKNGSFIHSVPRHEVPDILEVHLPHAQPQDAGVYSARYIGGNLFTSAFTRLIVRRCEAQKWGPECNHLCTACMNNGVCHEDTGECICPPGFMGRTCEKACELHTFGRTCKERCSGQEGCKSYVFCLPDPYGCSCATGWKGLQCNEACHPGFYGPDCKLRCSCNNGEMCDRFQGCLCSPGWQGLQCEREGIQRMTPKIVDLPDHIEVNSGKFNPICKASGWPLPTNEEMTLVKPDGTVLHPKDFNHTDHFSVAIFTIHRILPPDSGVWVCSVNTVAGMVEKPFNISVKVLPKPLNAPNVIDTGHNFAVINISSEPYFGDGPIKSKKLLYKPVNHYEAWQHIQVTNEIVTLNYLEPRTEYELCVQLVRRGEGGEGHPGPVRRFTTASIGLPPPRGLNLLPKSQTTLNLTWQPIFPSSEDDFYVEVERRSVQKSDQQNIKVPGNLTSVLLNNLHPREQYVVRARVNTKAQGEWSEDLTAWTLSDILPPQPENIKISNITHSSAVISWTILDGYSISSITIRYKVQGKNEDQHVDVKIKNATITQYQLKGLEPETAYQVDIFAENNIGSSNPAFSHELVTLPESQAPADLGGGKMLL

With Angiopoietin-1 (from UniProt Q15389), in series [1], the equilibrium dissociation constant (Kd) was 3.7 nM.

B1: Purified recombinant human ANGPT2 (ligand, UniProt O15123 19-496, looked up)
chain: YNNFRKSMDSIGKKQYQVQHGSCSYTFLLPEMDNCRSSSSPYVSNAVQRDAPLEYDDSVQRLQVLENIMENNTQWLMKLENYIQDNMKKEMVEIQQNAVQNQTAVMIEIGTNLLNQTAEQTRKLTDVEAQVLNQTTRLELQLLEHSLSTNKLEKQILDQTSEINKLQDKNSFLEKKVLAMEDKHIIQLQSIKEEKDQLQVLVSKQNSIIEELEKKIVTATVNNSVLQKQQHDLMETVNNLLTMMSTSNSAKDPTVAKEEQISFRDCAEVFKSGHTTNGIYTLTFPNSTEEIKAYCDMEAGGGGWTIIQRREDGSVDFQRTWKEYKVGFGNPSGEYWLGNEFVSQLTNQQRYVLKIHLKDWEGNEAYSLYEHFYLSSEELNYRIHLKGLTGTAGKISSISQPGNDFSTKDGDNDKCICKCSQMLTGGWWFDACGPSNLNGMYYPQRQNTNKFNGIKWYYWKGSGYSLKATTMMIRPADF
notes: human angiopoietin-2 (ANGPT2), purified recombinant protein from R & D Systems; Runs predominantly as disulfide-linked dimers on non-reducing SDS-PAGE; also called angiopoietin-2; source: bought: R & D Systems (purified recombinant)
For B1, the “stoichiometry N” value in series [2] was 2.

B2: Purified recombinant human ANGPT1 (ligand, UniProt Q15389 16-498, looked up)
chain: HIGCSNQRRSPENSGRRYNRIQHGQCAYTFILPEHDGNCRESTTDQYNTNALQRDAPHVEPDFSSQKLQHLEHVMENYTQWLQKLENYIVENMKSEMAQIQQNAVQNHTATMLEIGTSLLSQTAEQTRKLTDVETQVLNQTSRLEIQLLENSLSTYKLEKQLLQQTNEILKIHEKNSLLEHKILEMEGKHKEELDTLKEEKENLQGLVTRQTYIIQELEKQLNRATTNNSVLQKQQLELMDTVHNLVNLCTKEGVLLKGGKREEEKPFRDCADVYQAGFNKSGIYTIYINNMPEPKKVFCNMDVNGGGWTVIQHREDGSLDFQRGWKEYKMGFGNPSGEYWLGNEFIFAITSQRQYMLRIELMDWEGNRAYSQYDRFHIGNEKQNYRLYLKGHTGTAGKQSSLILHGADFSTKDADNDNCMCKCALMLTGGWWFDACGPSNLNGMFYTAGQNHGKLNGIKWHYFKGPSYSLRSTTMMIRPLDF
notes: human angiopoietin-1 (ANGPT1), purified recombinant protein from R & D Systems; Forms various-sized oligomers/multimers on non-reducing SDS-PAGE; also called angiopoietin-1; source: bought: R & D Systems (purified recombinant)
As to B2, in series [2], the binding result is reported as “binds”.

B3: Purified recombinant mouse Angpt4 (ligand, UniProt Q9WVH6 22-509, looked up)
chain: QHRGPEAGGHRQIHQVRRGQCSYTFVVPEPDICQLAPTAAPEALGGSNSLQRDLPASRLHLTDWRAQRAQRAQRVSQLEKILENNTQWLLKLEQSIKVNLRSHLVQAQQDTIQNQTTTMLALGANLMNQTKAQTHKLTAVEAQVLNQTLHMKTQMLENSLSTNKLERQMLMQSRELQRLQGRNRALETRLQALEAQHQAQLNSLQEKREQLHSLLGHQTGTLANLKHNLHALSSNSSSLQQQQQQLTEFVQRLVRIVAQDQHPVSLKTPKPVFQDCAEIKRSGVNTSGVYTIYETNMTKPLKVFCDMETDGGGWTLIQHREDGSVNFQRTWEEYKEGFGNVAREHWLGNEAVHRLTSRTAYLLRVELHDWEGRQTSIQYENFQLGSERQRYSLSVNDSSSSAGRKNSLAPQGTKFSTKDMDNDNCMCKCAQMLSGGWWFDACGLSNLNGIYYSVHQHLHKINGIRWHYFRGPSYSLHGTRMMLRPMGA
notes: mouse angiopoietin-4 (Angpt4, previously named Ang3), purified recombinant protein from R & D Systems; also called angiopoietin-4; Ang3; source: bought: R & D Systems (purified recombinant)
Regarding B3, the binding result in series [2] is reported as “binds”.

B4: Purified recombinant human ANGPT4 (ligand, UniProt Q9Y264 25-503, looked up)
chain: TRQEADRGCETLVVQHGHCSYTFLLPKSEPCPPGPEVSRDSNTLQRESLANPLHLGKLPTQQVKQLEQALQNNTQWLKKLERAIKTILRSKLEQVQQQMAQNQTAPMLELGTSLLNQTTAQIRKLTDMEAQLLNQTSRMDAQMPETFLSTNKLENQLLLQRQKLQQLQGQNSALEKRLQALETKQQEELASILSKKAKLLNTLSRQSAALTNIERGLRGVRHNSSLLQDQQHSLRQLLVLLRHLVQERANASAPAFIMAGEQVFQDCAEIQRSGASASGVYTIQVSNATKPRKVFCDLQSSGGRWTLIQRRENGTVNFQRNWKDYKQGFGDPAGEHWLGNEVVHQLTRRAAYSLRVELQDWEGHEAYAQYEHFHLGSENQLYRLSVVGYSGSAGRQSSLVLQNTSFSTLDSDNDHCLCKCAQVMSGGWWFDACGLSNLNGVYYHAPDNKYKMDGIRWHYFKGPSYSLRASRMMIRPLDI
notes: human angiopoietin-4 (ANGPT4), purified recombinant protein from R & D Systems; Forms dimeric and higher oligomeric/multimeric complexes on non-reducing SDS-PAGE; also called angiopoietin-4; source: bought: R & D Systems (purified recombinant)
Take B4: in series [2], the binding result was “binds”.
